Assay results published in publication PMC6667456.

Biological target: T1, TofR-His (also written His-TofR) (Burkholderia glumae BGR1?) (UniProt A1KWS3)
T1 sequence: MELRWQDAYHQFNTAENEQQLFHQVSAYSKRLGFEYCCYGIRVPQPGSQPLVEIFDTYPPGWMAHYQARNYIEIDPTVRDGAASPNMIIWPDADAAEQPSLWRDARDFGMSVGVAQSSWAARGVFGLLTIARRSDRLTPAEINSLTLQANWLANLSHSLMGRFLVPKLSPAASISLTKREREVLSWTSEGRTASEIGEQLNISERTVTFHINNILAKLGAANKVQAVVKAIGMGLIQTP
Experiment: EMSA
Settings: EMSA: 0.4 nM biotin-DNA, 10 mM Tris-HCl pH 7.5, 10 mM NaCl, 100 mM NaCl (both sic), 0.5 mM EDTA, 1 mM DTT, 5% glycerol, 50 ng/uL poly(dI-dC), 15 min …

TGGTGTCCTCCAGATATGGGCTGCAGTCGATATGGGCTGCAGTATCGGATCTCGCTTATCATTACTCAAACGAAATTTTCTTGAGTTGAACATGAAAAATATTCAGGTTCACGCTGCTACTGAACGCCGCCATGAATCGCTCGCCGCTTGAGCTGCGCCATCTGCAGACCCTCACGGCGCT (double strand) [metE1 putative promoter region, 181 bp]
binding: binds
